# Source: patent publication US8357523B2, “Beta-glucosidase variant enzymes and related polynucleotides” (Codexis, Inc., priority 2009, dated 2013)
# Assay: High throughput cellobiose assay: fold improvement in cellobiase activity of CelA variants over a control enzyme (Tables 2A-2D, 3, 5, 6, 7)
# Type: biochemical
# Details: 3.3 g/l cellobiose, 55° C. and pH 6.0
row,Molecule,Fold improvement over Control Variant No. 5 from Table 2A
1,120 (protein) STAIAQEGAAPAAILHPEKWPRPATQRLIDPAVEKRVDALLKQLSVEEKVGQVIQGDIGTITPEDLRKYPLGSILAGGDSGPNGDDRAPPKEWLDLADAFYRVSLEKRPGHTPIPVLFGIDAVHGHGNIGSATIFPHNIALGATRDPELLRRIGEVTAVEMTATGIDWTFAPALSVVRDDRWGRTYEGFSEDPEIVASYSAAIVEGVQGKFGSKDFMAPGRIVASAKHFLADGGTDQGRDQGDARISEDELIRIHNAGYPPAIDAGVLTVMASFSSWQGIKHHGHKQLLTDVLKGQMGFNGFIVGDWNAHDQVPGCTKFNCPTSLIAGLDMYMAADSWKQLYENTLAQVKDGTIPMARLDDAVRRILRVKVLAGLFEKPAPKDRPGLPGLETLGSPEHRAVGREAVRKSLVLLKNDKGTLPLSPKARVLVAGDGADNIGKQSGGWTISWQGTGNRNDEFPGATSILGGIRDAVADAGGSVEFDVAGQYKTKPDVAIVVFGEEPYAEFQGDVETLEYQPDQKQDLALLKKLKDQGIPVVAVFLSGRPMWVNPELNASDAFVAAWLPGTEGGGVADVLFTDKAGKVQHDFAGKLSYSWPRTAAQTTVNRGDADYNPLFAYGYGLTYKDKSKVGTLPEESGVPAEARQNAGIYFRAGALRLPGRFP,+++ (+++ = 6 to 13 fold improvement over control Variant No. 2)
2,121 (protein) STAIAQEGAAPAAILHPEKWPRPATQRLIDPAVEKRVDALLKQLSVEEKVGQVIQGDIGTITPEDLRKYPLGSILAGGNSGPNGDDRAPPKEWLDLADAFYRVSLEKRPGHTPIPVLFGIDAVHGHGNIGSATIFPHNIALGATRSPELLRRIGEVTAVEMTATGIDWTFAPCLSVVRDDRWGRTYEGFSEDPEIVAAYSPAIVEGVQGKFGSKDFMAPGRIVASAKHFLADGGTDQGRDQGDARISEDELIRIHNAGYPPAIDAGVLTVMASFSSWQGIKHHGHKQLLTDVLKGQMGFNGFIVGDWNAHDQVPGCTKFNCPTSLIAGLDMYMAADSWKQLYENTLAQVKDGTIPMARLDDAVRRILRVKVLAGLFEKPAPKDRPGLPGLETLGSPEHRAVGREAVRKSLVLLKNDKGTLPLSPKARVLVAGDGADNIGKQSGGWTISWQGTGNRNDEFPGATSILGGIRDAVADAGGSVEFDVAGQYKTKPDVAIVVFGEEPYAEFQGDVETLEYQPDQKQDLALLKKLKDQGIPVVAVFLSGRPMWVNPELNASDAFVAAWLPGTEGGGVADVLFTDKAGKVQHDFAGKLSYSWPRTAAQTTVNRGDADYNPLFAYGYGLTYKDKSKVGTLPEESGVPAEARQNAGIYFRAGALRLPGRFL,++ (++ = 1.1 to 6 fold improvement over control Variant No. 2)
3,122 (protein) STAIAQEGAAPAAILHPEKWPRPATQRLIDPAVEKRVDALLKQLSVEEKVGQVIQGDIGTITPEDLRKYPLGSILAGGDSGPNGDDRAPPKEWLDLADAFYRVSLEKRPGHTPIPVLFGIDAVHGHGKIGSATIFPHNIALGATRDPELLRRIGEVTAEEMAATGIDWTFAPALSVVRDDRWGRTYEGFSEDPEIVAAYSPAIVEGVQGKYGSKDFMAVGRIVACAKHFLADGGTDQGRDQGDARISEDELIRIHNAGYPPAIDAGVLTVMASFSSWQGIKHHGHKQLLTDVLKGQMGFNGFIVGDWNAHDQVPGCTKFNCPTSLIAGLDMYMAADSWKQLYENTLAQVKDGTIPMARLDDAVRRILRVKVLAGLFEKPAPKDRPGLPGLETLGSPEHRAVGREAVRKSLVLLKNDKGTLPLSPKARVLVAGDGADNIGKQSGGWTISWQGTGNRNDEFPGATSILGGIRDAVADAGGSVEFDVAGQYKTKPDVAIVVFGEEPYAEFQGDVETLEYQPDQKQDLALLKKLKDQGIPVVAVFLSGRPMWVNPELNASDAFVAAWLPGTEGGGVADVLFTDKAGKVQHDFAGKLSYSWPRTAAQTTVNRGDADYNPLFAYGYGLTYKDKSKVGTLPEESGVPAEARQNAGIYFRAGALRLPGRFL,+++ (+++ = 6 to 13 fold improvement over control Variant No. 2)
